Target: SARS-CoV-2 Spike glycoprotein trimer immunogen (stabilized, soluble ectodomain) (SARS-CoV-2 | not stated) (UniProt P0DTC2)
Assay: negative stain electron microscopy

SARS-CoV-2 Spike glycoprotein trimer immunogen (stabilized, soluble ectodomain) (from UniProt P0DTC2 14-1208)
stoichiometry N: 3

Source: PMC7443692
